Laboratory results from patent US12427188B2, “Pyocyanine demethylases and related phenazine degrading agents compositions, methods and systems for interfering with viability of bacteria” (priority 2020, dated 2025).
Where a chain is given by its changes, count along the chain named. Names and notes keep the numbering of the source.

B1: PodA8: Designed PodA41-162 variant: A53N, I73R, A87V, T91V, A129V (protein)
chain: VTMTLDVKNDQVNKHDFGKPGMDVGDMDIFSDRLSVDGKQVGYDGGVCFFVNVTPDNPMTYCELTIHLDAGEIFARSLTPHTLAPFTMVITGGTGEYANSKGELTVSGVATPDEKYELKLTK
B2: PodA5: Designed PodA41-162 variant: I73L, A87I, M99V, A129V, K141T (protein)
chain: B1 chain with N13A, R33L, V47I, V51T, M59V, K101T
B3: PodA7: Designed PodA41-162 variant: I73L, A87I, T91V, M99T, A129V (protein)
chain: B1 chain with N13A, R33L, V47I, M59T
B4: PodA3: Designed PodA41-162 variant: I73K, A87V, T91V, M99V, A129V (protein)
chain: B1 chain with N13A, R33K, M59V
B5: PodA6: Designed PodA41-162 variant: I73R, A87V, T91V, M99V, A129T (protein)
chain: B1 chain with N13A, M59V, V89T

Experiments:
[1] = Continuous spectrophotometric PYO demethylation assay (specific activity and kinetics of PodA); type: biochemical
Description: Specific activity and kinetics of PodA. To determine specific activity and kinetic parameters of PodA for PYO, a continuous spectrophotometric assay monitoring the absorbance of PYO (690 nm) was utilized. Briefly, assays were performed at 25° C. in 100 μL reaction volumes in 96-well plates and reactions were monitored at 690 nm over 10 min. Reaction mixtures contained Phosphate buffer (50 mM, pH 6.0), ethylene glycol (1%, v/v), protein (3 μM) and substrate (for specific activity, 100 μM, for kinetics, varying). Data were acquired using the SpectraMax® M3 Microplate Reader (Molecular Devices) using the Soft Max Pro software every 10 s over 10 min. Path lengths for each well were calculated using Soft Max Pro endpoint readings and slopes were corrected for path lengths of 1 cm.
Specific activity was calculated from the slope of the linear range of (ΔOD690 min^−1) using Beer's Law (A=εcl) with a path length of 1 cm and the molar extinction coefficient of PYO (4,130 M^−1 cm^−1). Equation was solved for c, giving specific activity in nmol min^−1 mg^−1 of PodA. For kinetic parameters, graphs of initial velocity (μM s^−1) versus substrate concentration (μM) were plotted using Prism v8 (GraphPad). The Michaelis-Menten kinetics model was used to determine Km and Vmax. The turnover number (kcat) was determined using the following equation: Vmax=kcat[E], where [E] was the concentration of PodA added. All spectrophotometric assays mentioned above were completed thrice, each in technical triplicate with a representative data set shown. Error bars represent standard deviation as calculated by Prism v8 (GraphPad). Standard deviation for kcat and Kcat KM^−1 was calculated using standard formulas for propagation of error.

[2] = Protein yield of PodA variants purified from inclusion bodies of overexpression culture; details: purified from inclusion bodies, per L of E. coli overexpression culture
Description: Protein overproduction and purification of soluble and inclusion body fractions. Plasmids coding for proteins of interest were transformed into E. coli BL21 […]. […]. Cultures were grown at 37° C. with shaking to an optical density of 0.4 (OD600 nm) and plasmid expression was induced with IPTG (50 μM) and shaken overnight at 16° C. Cells were harvested by centrifugation at 5,000×g for 10 min in a Beckman Coulter Avanti J-20 XOI refrigerated centrifuge using a JLA-8.1000 rotor at 4° C. Cell pellets were stored at −80° C. until used.
For purification of PodA from inclusion bodies, the pellets remaining following lysis and centrifugation at 40,000×g were resuspended in 20 mL of detergent buffer [50 mM HEPES (pH 7.5) and 1% Triton-X (v/v)] using a Bio-gen PRO200 cell homogenizer (PRO Scientific). Sample was spun for 15 min at 40,000×g at 4° C. in a Beckman Coulter Avanti centrifuge with a JA-25.50 rotor. Supernatant was discarded and the remaining cell pellet was resuspended in 5 mL of buffer [50 mM HEPES (pH 7.5), 500 mM NaCl] using a cell homogenizer, supplemented with lysozyme (200 μg mL^−1), and incubated for 10 min. Volume was increased to 20 mL with HEPES (50 mM, pH 7) and sample was spun for 40,000×g at 4° C. for 15 min. Supernatant was discarded and pellet was homogenized in 10 mL of denaturing buffer 50 mM HEPES (pH 7.5), 500 mM NaCl, and 8M urea) and incubating rocking overnight. The sample was spun at for 40,000×g at 25° C. for 30 min and supernatant was incubated with 1 mL HisPur Ni-NTA resin (Thermo Fisher Scientific) on a rocking platform for 10 min. Beads were allowed to settle without shaking, supernatant was discarded, and resin was pipetted into glass gravity columns. Resin was washed with 15 mL of denaturing buffer, followed by an elution with denaturing buffer supplemented with imidazole (500 mM). Fractions were analyzed by SDS-PAGE and those containing protein were combined into SnakeSkin 3.5 K MWCO dialysis tubing (Thermo Fisher Scientific). Urea was slowly dialyzed out in HEPES (50 mM, pH 7.5) and NaCl (500 mM) by lowing urea concentrations by 1 M increments. Each step was dialyzed at RT for 30 min. Protein was dialyzed in HEPES (50 mM, pH 7.5), NaCl (500 mM), and imidazole (20 mM) overnight at 4° C. The following day, protein was cleaved for 3 h at 25° C. with TEV protease (1:50 mg:mg ratio of TEV to PodA). The sample was applied to a HisPur gravity column and cleaved protein in the flow thru was confirmed by SDS-PAGE. Cleaved PodA protein was then dialyzed for storage for 3 h at 4° C. in HEPES (50 mM pH 7.5), NaCl (250 mM) and finally in HEPES (50 mM, pH 7.5), NaCl (100 mM), and glycerol (20%, v/v). Protein concentration was established on a NanoDrop™ using the extinction coefficient and MW of each protein. Protein was drop frozen in LN2 and stored at −80° C. until use.

Molecule | catalytic efficiency compared with PodA^WT ([1]; Michaelis-Menten kinetics, 3 μM protein) | PYO demethylation activity relative to wild type ([1]; PYO 50 μM, PodA variants 3 μM) | Yield [2]
B1 | no change in catalytic efficiency | wild-type activity was maintained | 2.1 mg/L^−1
B2 |  |  | 9.9 mg/L^−1
B3 |  |  | 4.1 mg/L^−1
B4 |  |  | 9.45 mg/L^−1
B5 |  |  | 4.4 mg/L^−1
